Data on two molecules can be found in US20090004190A1 (published 2009).

In test [1] the target is T1, Amyloid Beta (1-40) from Biosource (UniProt P05067 672-711).
T1 construct: domain: Amyloid Beta (1-40); Immobilized on Maxisorb plates at 5 micrograms per well; also called Abeta; A-beta
Nature of the test: plate ELISA, immobilized ligand, dilutions of fusion protein, absorbance at 405 nm. The protocol:
(§1) Known RAGE ligands were coated onto the surface of Maxisorb plates at a concentration of 5 micrograms per well. Plates were incubated at 4° C. overnight. Following ligand incubation, plates were aspirated and a blocking buffer of 1% BSA in 50 mM imidizole buffer (pH 7.2) was added to the plates for 1 hour at room temperature. The plates were then aspirated and/or washed with wash buffer (20 mM Imidizole, 150 mM NaCl, 0.05% Tween-20, 5 mM CaCl₂ and 5 mM MgCl₂, pH 7.2). […] The RAGE fusion protein was added at increasing dilutions of the initial sample. The RAGE fusion protein was allowed to incubate with the immobilized ligand at 37° C. for one hour after which the plate was washed and assayed for binding of the RAGE fusion protein. Binding was detected by the addition of an immunodetection complex containing a monoclonal mouse anti-human IgG1 diluted 1:11,000 to a final assay concentration (FAC) of 21 ng/100 μL, a biotinylated goat anti-mouse IgG diluted 1:500, to a FAC of […], and an avidin-linked alkaline phosphatase. […] Binding of the complex to the immobilized RAGE fusion protein was quantified by measuring conversion of PNPP to para-nitrophenol (PNP) which was measured spectrophotometrically at 405 nm.
Background: In an ELISA, binding on a coated surface is turned into a signal by an enzyme label.

The target in a further test is T2, BSA (UniProt P02769 25-607).
T2 construct: Negative control coating; also called BSA coating alone; BSA+wash
In words: plate ELISA, BSA-only coating, detection with anti-human IgG1 complex, absorbance at 405 nm. As for the experimental part:
as §1

In test [2] the target is T1, Amyloid Beta (1-40) from Biosource. Nature of the test: plate assay, immobilized ligand (A beta=Amyloid beta 1-40), fusion protein 0 to 360 nM, anti-IgG polyclonal antibody with alkaline phosphatase. The protocol:
The ligands are immobilized on a microtiter plate and incubated in the presence of increasing concentrations of RAGE fusion protein from 0 to 360 nM. The RAGE fusion protein-ligand interaction is detected using a polyclonal antibody conjugated with alkaline phosphatase that is specific for the IgG portion of the fusion chimera. […] HMG1B=Ampoterin, CML=Carboxymethyl Lysine, A beta=Amyloid beta 1-40.

T1 sequence (P05067 672-711 limits assumed): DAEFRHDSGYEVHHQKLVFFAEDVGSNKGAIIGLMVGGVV
T2 sequence (P02769 25-607 limits assumed): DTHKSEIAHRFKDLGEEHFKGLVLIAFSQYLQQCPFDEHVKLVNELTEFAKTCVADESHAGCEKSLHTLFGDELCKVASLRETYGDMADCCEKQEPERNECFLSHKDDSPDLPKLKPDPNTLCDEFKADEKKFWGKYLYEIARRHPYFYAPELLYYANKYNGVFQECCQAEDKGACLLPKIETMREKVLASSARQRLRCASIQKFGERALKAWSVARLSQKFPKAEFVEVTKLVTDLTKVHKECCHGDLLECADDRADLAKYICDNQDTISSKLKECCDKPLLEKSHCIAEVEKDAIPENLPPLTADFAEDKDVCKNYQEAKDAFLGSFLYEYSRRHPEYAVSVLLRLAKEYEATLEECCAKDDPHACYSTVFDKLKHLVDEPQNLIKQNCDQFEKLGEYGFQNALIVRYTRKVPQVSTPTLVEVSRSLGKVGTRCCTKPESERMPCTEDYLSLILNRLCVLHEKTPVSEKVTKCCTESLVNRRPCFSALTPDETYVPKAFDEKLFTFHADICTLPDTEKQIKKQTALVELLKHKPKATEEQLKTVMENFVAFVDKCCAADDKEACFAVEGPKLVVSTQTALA

B1: RAGE fusion protein TTP-3000 (Fc fusion)
chain: QNITARIGEPLVLKCKGAPKKPPQRLEWKLNTGRTEAWKVLSPQGGGPWDSVARVLPNGSLFLPAVGIQDEGIFRCQAMNRNGKETKSNYRVRVYQIPGKPEIVDSASELTAGPSVFLFPPKPKDTLMISRTPEVTCVVVDVSHEDPEVKFNWYVDGVEVHNAKTKPREEQYNSTYRVVSVLTVLHQDWLNGKEYKCKVSNKALPAPIEKTISKAKGQPREPQVYTLPPSRDELTKNQVSLTCLVKGFYPSDIAVEWESNGQPENNYKTTPPVLDSDGSFFLYSKLTVDKSRWQQGNVFSCSVMHEALHNHYTQKSLSLSPGK
notes: also called TT3; three domain RAGE fusion protein
Regarding B1, the binding result in test [1] is recorded as “binds”; with BSA it was “no binding”.

B2: RAGE fusion protein TTP-4000 (Fc fusion)
chain: QNITARIGEPLVLKCKGAPKKPPQRLEWKLNTGRTEAWKVLSPQGGGPWDSVARVLPNGSLFLPAVGIQDEGIFRCQAMNRNGKETKSNYRVRVYQIPGKPEIVDSASELTAGVPNKVGTCVSEGSYPAGTLSWHLDGKPLVPNEKGVSVKEQTRRHPETGLFTLQSELMVTPARGGDPRPTFSCSFSPGLPRHRALRTAPIQPRVWEPVPLEEVQLVVEPEGGAVAPPSVFLFPPKPKDTLMISRTPEVTCVVVDVSHEDPEVKFNWYVDGVEVHNAKTKPREEQYNSTYRVVSVLTVLHQDWLNGKEYKCKVSNKALPAPIEKTISKAKGQPREPQVYTLPPSRDELTKNQVSLTCLVKGFYPSDIAVEWESNGQPENNYKTTPPVLDSDGSFFLYSKLTVDKSRWQQGNVFSCSVMHEALHNHYTQKSLSLSPGK
modifications: N-terminal residue glutamine (Q) or pyroglutamic acid (pE) or a mixture thereof; glycosylation sites at N2 and N288 (numbering of SEQ ID NO: 34 or 56); C-terminal residue of CH3 may be cleaved off
notes: No immunoglobulin hinge; Made in CHO cells, purified on Protein A; also called TT4; four domain RAGE fusion protein
Take B2: the binding result was “no binding” with BSA and “binds” in test [2].
